# Test results from US20260242447A1.
# Target: SARS-CoV-2 spike protein (full length) (SARS-CoV-2) (UniProt P0DTC2)
# Test: ELISA, GRP78-HRP on plate-bound spike protein
# Chain of GRP78 (soluble / recombinant protein), P11021 19-654 (other; other documents disagree on this pair) (P11021 19-654 limits assumed): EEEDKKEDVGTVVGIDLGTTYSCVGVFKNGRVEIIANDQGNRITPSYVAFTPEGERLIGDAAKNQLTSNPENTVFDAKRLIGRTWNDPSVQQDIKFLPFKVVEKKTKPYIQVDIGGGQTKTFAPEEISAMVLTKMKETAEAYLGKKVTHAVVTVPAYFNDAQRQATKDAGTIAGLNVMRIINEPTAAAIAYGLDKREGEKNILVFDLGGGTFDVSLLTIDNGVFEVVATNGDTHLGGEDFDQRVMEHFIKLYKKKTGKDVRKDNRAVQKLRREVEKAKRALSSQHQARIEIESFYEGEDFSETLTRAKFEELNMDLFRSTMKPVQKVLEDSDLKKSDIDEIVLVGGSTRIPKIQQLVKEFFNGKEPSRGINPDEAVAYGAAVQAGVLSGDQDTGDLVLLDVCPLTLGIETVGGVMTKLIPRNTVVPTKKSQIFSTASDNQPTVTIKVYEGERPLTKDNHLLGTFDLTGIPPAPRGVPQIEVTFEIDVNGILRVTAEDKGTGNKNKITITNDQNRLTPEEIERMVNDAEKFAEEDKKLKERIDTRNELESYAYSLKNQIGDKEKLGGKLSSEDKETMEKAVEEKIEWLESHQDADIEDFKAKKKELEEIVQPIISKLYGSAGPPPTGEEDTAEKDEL
substance,measurement,value
"GRP78 (soluble / recombinant protein), P11021 19-654 (other; other documents disagree on this pair)",Kd,293 nM
